How the values were obtained:
[1] = target: DNA polymerase (pol) β, human wild-type full-length (1–335 aa) (human) (UniProt P06746)
[2] = target: DNA ligase IIIα, human wild-type full-length (1–922 aa) (human); test: SPR; Biacore X-100, 25 °C; polβ, ligase IIIα or APTX amine-coupled on CM5; XRCC1 (wild-type or mutants) as analyte, 30 μl/min; 20 mM HEPES pH 7.4, 150 mM NaCl, 3 mM EDTA, 0.005% Surfactant P20; 1:1 (Langmuir) model
[3] = target: Aprataxin (APTX), human wild-type full-length (human) (UniProt Q7Z2E3); test: as above
[4] = target: DNA polymerase (pol) β, human wild-type full-length (1–335 aa) (human) (UniProt P06746); test: as above
[5] = target: DNA ligase IIIα, human wild-type full-length (1–922 aa) (human)
[6] = system: DNA ligase IIIalpha (human); test: BLI; settings: BLI (Octet QKe): 20 mM HEPES pH 7.4, 200 mM NaCl, 0.5% BSA, 0.05% Tween 20, 20 °C, ternary complexes plus 10 mM MgCl2 and 0.1 mM dGTP or 1 mM ATP
[7] = target: XRCC1 R280H R280H (human) (UniProt P18887); test: BLI; settings: BLI (Octet QKe): 20 mM HEPES pH 7.4, 200 mM NaCl, 0.5% BSA, 0.05% Tween 20, 20 °C; ternary complexes plus 10 mM MgCl2 and 0.1 mM dGTP or 1 mM ATP
[8] = target: DNA ligase IIIalpha;XRCC1 wild-type (human;human) (UniProt P18887); test: BLI; settings: 10 mM Mg2+, 1 mM ATP; 1:1 ligase/XRCC1; koff 2.0e-4; BLI (Octet QKe): 20 mM HEPES pH 7.4, 200 mM NaCl, 0.5% BSA, 0.05% Tween 20, 20 °C; ternary complexes plus 10 mM MgCl2 and 0.1 mM dGTP or 1 mM ATP
[9] = target: DNA polymerase beta (human) (UniProt P06746); test: BLI; settings: BLI (Octet QKe): 20 mM HEPES pH 7.4, 200 mM NaCl, 0.5% BSA, 0.05% Tween 20, 20 °C; ternary complexes plus 10 mM MgCl2 and 0.1 mM dGTP or 1 mM ATP
[10] = target: DNA polymerase beta (human) (UniProt P06746); test: BLI; settings: BLI (Octet QKe): 20 mM HEPES pH 7.4, 200 mM NaCl, 0.5% BSA, 0.05% Tween 20, 20 °C; ternary complexes plus 10 mM MgCl2 and 0.1 mM dGTP or 1 mM ATP; remark: listed apart in the source
XRCC1 wild-type (human) = XRCC1 wild-type (human) (UniProt P18887); test: BLI; settings: BLI (Octet QKe): 20 mM HEPES pH 7.4, 200 mM NaCl, 0.5% BSA, 0.05% Tween 20, 20 °C; ternary complexes plus 10 mM MgCl2 and 0.1 mM dGTP or 1 mM ATP
[11] = target: DNA polymerase beta;XRCC1 wild-type (human;human) (UniProt P06746+P18887); test: BLI; settings: BLI (Octet QKe): 20 mM HEPES pH 7.4, 200 mM NaCl, 0.5% BSA, 0.05% Tween 20, 20 °C; ternary complexes plus 10 mM MgCl2 and 0.1 mM dGTP or 1 mM ATP

Sequence of Aprataxin (APTX), human wild-type full-length (human) (Q7Z2E3 whole entry, the tested form may be a part): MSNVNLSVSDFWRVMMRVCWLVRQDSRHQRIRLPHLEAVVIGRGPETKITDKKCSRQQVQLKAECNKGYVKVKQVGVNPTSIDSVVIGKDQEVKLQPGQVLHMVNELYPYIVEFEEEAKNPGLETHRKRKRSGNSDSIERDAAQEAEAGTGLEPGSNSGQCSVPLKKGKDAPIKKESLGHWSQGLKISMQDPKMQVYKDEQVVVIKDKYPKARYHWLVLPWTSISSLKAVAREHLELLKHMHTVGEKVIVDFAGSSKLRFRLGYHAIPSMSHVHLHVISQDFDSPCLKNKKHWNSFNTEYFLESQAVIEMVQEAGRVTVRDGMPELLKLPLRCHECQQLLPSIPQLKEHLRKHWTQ

X-ray cross-complementing protein 1 (XRCC1), human wild-type full-length (1–633 aa) (from UniProt P18887 1-633) (natural protein)
amount of ligation products in the coupled assay (polβ dGTP:C insertion coupled to ligation by ligase IIIα), with against without XRCC1 [1]: 2 fold | Kd [2]: 50.4 nM | Kd [3]: 374 nM | Kd [4]: 10.2 nM | amount of ligation products, nick sealing of nick DNA with 3′-dG:C by ligase IIIα, with against without XRCC1 [5]: 4 fold

XRCC1 R109A mutant (from UniProt P18887 1-633) (natural protein)
Kd [4]: 170 nM

XRCC1 V86R mutant (from UniProt P18887 1-633) (natural protein)
Kd [4]: 284 nM

XRCC1 cancer-associated variant R399Q (from UniProt P18887 1-633) (natural protein)
Kd [4]: 5.8 nM

nick DNA with 3'-dG:C
Kd ([6]; 10 mM Mg2+, 1 mM ATP, no XRCC1, koff 5.0e-4): 22 nM | Kd ([6]; no ATP): 5 nM | Kd [7]: 140 nM | Kd [8]: 6.5 nM

one nucleotide gap DNA, template C
Kd [9]: 5.4 nM | Kd [10]: 355 nM | Kd (XRCC1 wild-type (human)): 110 nM | Kd [11]: 30 nM | Kd [7]: 153 nM
